Reference: the DeepSol protein solubility set

Test: soluble on expression in E. coli; label from the status in PepcDB or PDB records

Soluble on expression in E. coli, soluble:
MGSSHHHHHHSSGLVPRGSHMARQNLKSTDRAVQQMLDKAKREGIQTVWDRYEAMKPQCGFGETGLCCRHCLQGPCRINPFGDEPKVGICGATAEVIVARGLDRSIAAGAAGHSGHAKHLAHTLKKAVQGKAASYMIKDRTKLHSIAKRLGIPTEGQKDEDIALEVAKAALADFHEKDTPVLWVTTVLPPSRVKVLSAHGLIPAGIDHEIAEIMHRTSMGCDADAQNLLLGGLRCSLADLAGCYMGTDLADILFGTPAPVVTESNLGVLKADAVNVAVHGHNPVLSDIIVSVSKEMENEARAAGATGINVVGICCTGNEVLMRHGIPACTHSVSQEMAMITGALDAMILDYQCIQPSVATIAECTGTTVITTMEMSKITGATHVNFAEEAAVENAKQILRLAIDTFKRRKGKPVEIPNIKTKVVAGFSTEAIINALSKLNANDPLKPLIDNVVNGNIRGVCLFAGCNNVKVPQDQNFTTIARKLLKQNVLVVATGCGAGALMRHGFMDPANVDELCGDGLKAVLTAIGEANGLGGPLPPVLHMGSCVDNSRAVALVAALANRLGVDLDRLPVVASAAEAMHEKAVAIGTWAVTIGLPTHIGVLPPITGSLPVTQILTSSVKDITGGYFIVELDPETAADKLLAAINERRAGLGLPW

Soluble on expression in E. coli, not soluble:
MSLNQTFDKENLESKNTQNLQKSKNPTSQLSKTILKEEFNFLPNDVEINWKGRVLVIGDIHGDLKSLITSLFLSGVINSNLDWIAKNTLLIQLGDVVDRGSHALQIYKLFNKLKSQAPSLGSKFVGLLGNHEVMNLCGQLHYVTDEDFQTYGGRDNRTFEWSKEGFVGKYLRTMKLAIRVNDSLYVHAGLLPKYAKLGLDKLDKLSNDLLEGDFCDFYSSLFFVEDGPLWTRDISLGEEEKACKLVDETLQILGLSRMVVGHTIQHDNRINIKCDNKLILADTGFSEAIYGKPCMLEILYHNDNPDPSNYKSFHPYSEGHHHHHH
MGSDKIHHHHHHMSYYLRSASLTNYVEVARAVGLDPHQFLRAAKISRDVLLDPDIRIPAKKVGRLLDDSARAAHVDDFGLRMAELRQVSNLGPLAFVVREQPTLRRALESMVRYMGVQNEALAMRMEESEGLLMIRLHILNDQPGTLRQATDLAVGVVYRLLSVCLGASWRPRSICFTHAAPASQATFQRVFGMPCVFNQDFDGIVCVAADLEAPLPSYDPVMAHQVKRYLGTLLAQANTTLPDKVRELVHVLLPSGMCSVDRVAQHLGVDRRTVHRRLAQENTSYSDIVNAARASLVVRYIDNRERPLSEVATLLGFSSLSAFSRWFGGQFGCSVSKWRLQHEGQGRNTA
MKTFSDRWRQLDWDDIRLRINGKTAADVERALNASQLTRDDMMALLSPAASGYLEQLAQRAQRLTRQRFGNTVSFYVPLYLSNLCANDCTYCGFSMSNRIKRKTLDEADIARESAAIREMGFEHLLLVTGEHQAKVGMDYFRRHLPALREQFSSLQMEVQPLAETEYAELKQLGLDGVMVYQETYHEATYARHHLKGKKQDFFWRLETPDRLGRAGIDKIGLGALIGLSDNWRVDSYMVAEHLLWLQQHYWQSRYSVSFPRLRPCTGGIEPASIMDERQLVQTICAFRLLAPEIELSLSTRESPWFRDRVIPLAINNVSAFSKTQPGGYADNHPELEQFSPHDDRRPEAVAAALTAQGLQPVWKDWDSYLGRASQRL
MGSDKIHHHHHHMDGSLNGETWRFIVRNIRIGVVEDDPASCQLVLDYLNRYQSETGEQFTVSVFDDGARIVEKYAPVYDILLLDIEMKEIDGMAAARRIRERDDNVVIIFITAAPQYAISGYEVRALSYLLKPLPWFAFSQELKKSIDMVRRNGDDSMLIETGKGQMRMNLTDILYLESIRHTIVIHTLDGKYSINGTLKDMEAKLADRHFFRSNSCYLVNLKHVTGVADQDCIMSDDERLRVSRPRKKAFLAALADYMGGGR
MGLELPLILGTSSVFRREQMERLGIAFQAASPDFDETPMLGESAPQTALRLAEGKARSLTGRFPEALIVGADQVAWCDGRQWGKPMNLANAQKMLMHLSGREIEFYSAIVLLNTVTGRMRRHIDKTVVVMRQLDELHILRYLEREPDAVYCSCALKSEDLGALLIERIESTDPNALIGLPVFRLVDFLKNEGVEVL
MGSDKIHHHHHHMLQTDNLIPDFINKQITQAVMSLRSGNVVAFPTETVYGLGADISQPQAIQKIFEIKGRPSSHPLIVHFANLSELEFWAENIPATAWILAQHFWPGPLTLILTKSNHIPLSVTGGQETVGLRIPRHPIALKLLEQLGSCKALAAPSANRFGFVSPTIADHVKNAFNDKIEVILDGGPCEVGLESTIVSCIDKDVTILRPGGISVLSIENLLQQKVSVKSQNKIRTPGSLSSHYATATPLEICQSSESLFSRSFDLLQQGIRTAVIIRSIHLIPMLNSDDKFHYILMPNDPVAFGKDLYATLRKLDDANFERILVEAPPDDLEWLAVADRLSRASYSFTSK
